Source: PMC6101577

Target: T1, recombinant human SFPQ/PSF (human), P23246
T1 chain: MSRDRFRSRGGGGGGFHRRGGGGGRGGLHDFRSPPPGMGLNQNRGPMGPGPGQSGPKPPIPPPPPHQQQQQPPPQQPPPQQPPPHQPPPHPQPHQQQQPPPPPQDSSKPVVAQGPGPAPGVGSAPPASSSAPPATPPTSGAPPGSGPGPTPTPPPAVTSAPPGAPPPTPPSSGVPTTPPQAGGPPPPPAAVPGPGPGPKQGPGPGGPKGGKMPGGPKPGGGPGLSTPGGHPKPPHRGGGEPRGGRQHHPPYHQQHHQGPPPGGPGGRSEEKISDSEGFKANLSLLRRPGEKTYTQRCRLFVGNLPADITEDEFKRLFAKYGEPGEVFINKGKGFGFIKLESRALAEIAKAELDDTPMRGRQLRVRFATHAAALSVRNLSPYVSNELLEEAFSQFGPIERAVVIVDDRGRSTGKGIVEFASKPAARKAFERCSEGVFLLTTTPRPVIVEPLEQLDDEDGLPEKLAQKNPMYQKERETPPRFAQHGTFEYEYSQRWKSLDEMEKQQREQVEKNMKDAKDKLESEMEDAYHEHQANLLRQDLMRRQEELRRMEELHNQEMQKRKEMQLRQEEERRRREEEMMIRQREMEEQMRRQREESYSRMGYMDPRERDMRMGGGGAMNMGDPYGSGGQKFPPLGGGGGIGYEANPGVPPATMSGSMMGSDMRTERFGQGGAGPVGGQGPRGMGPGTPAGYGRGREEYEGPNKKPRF
Test: SEC
Conditions: remark: other sources report otherwise

B1: recombinant human SFPQ/PSF, P23246 1-707 (natural protein)
chain: MSRDRFRSRGGGGGGFHRRGGGGGRGGLHDFRSPPPGMGLNQNRGPMGPGPGQSGPKPPIPPPPPHQQQQQPPPQQPPPQQPPPHQPPPHPQPHQQQQPPPPPQDSSKPVVAQGPGPAPGVGSAPPASSSAPPATPPTSGAPPGSGPGPTPTPPPAVTSAPPGAPPPTPPSSGVPTTPPQAGGPPPPPAAVPGPGPGPKQGPGPGGPKGGKMPGGPKPGGGPGLSTPGGHPKPPHRGGGEPRGGRQHHPPYHQQHHQGPPPGGPGGRSEEKISDSEGFKANLSLLRRPGEKTYTQRCRLFVGNLPADITEDEFKRLFAKYGEPGEVFINKGKGFGFIKLESRALAEIAKAELDDTPMRGRQLRVRFATHAAALSVRNLSPYVSNELLEEAFSQFGPIERAVVIVDDRGRSTGKGIVEFASKPAARKAFERCSEGVFLLTTTPRPVIVEPLEQLDDEDGLPEKLAQKNPMYQKERETPPRFAQHGTFEYEYSQRWKSLDEMEKQQREQVEKNMKDAKDKLESEMEDAYHEHQANLLRQDLMRRQEELRRMEELHNQEMQKRKEMQLRQEEERRRREEEMMIRQREMEEQMRRQREESYSRMGYMDPRERDMRMGGGGAMNMGDPYGSGGQKFPPLGGGGGIGYEANPGVPPATMSGSMMGSDMRTERFGQGGAGPVGGQGPRGMGPGTPAGYGRGREEYEGPNKKPRF
stoichiometry N: 2
